Test results: patent publication US20220267469A1 (LIPUM, published 2022)

T1: Mouse BSSL, recombinant (mouse, UniProt Q64285 21-599)
T1 construct: Bought (R&D Systems, Cat. no 5658-CE); also called mBSSL; murine BSSL
T1 sequence: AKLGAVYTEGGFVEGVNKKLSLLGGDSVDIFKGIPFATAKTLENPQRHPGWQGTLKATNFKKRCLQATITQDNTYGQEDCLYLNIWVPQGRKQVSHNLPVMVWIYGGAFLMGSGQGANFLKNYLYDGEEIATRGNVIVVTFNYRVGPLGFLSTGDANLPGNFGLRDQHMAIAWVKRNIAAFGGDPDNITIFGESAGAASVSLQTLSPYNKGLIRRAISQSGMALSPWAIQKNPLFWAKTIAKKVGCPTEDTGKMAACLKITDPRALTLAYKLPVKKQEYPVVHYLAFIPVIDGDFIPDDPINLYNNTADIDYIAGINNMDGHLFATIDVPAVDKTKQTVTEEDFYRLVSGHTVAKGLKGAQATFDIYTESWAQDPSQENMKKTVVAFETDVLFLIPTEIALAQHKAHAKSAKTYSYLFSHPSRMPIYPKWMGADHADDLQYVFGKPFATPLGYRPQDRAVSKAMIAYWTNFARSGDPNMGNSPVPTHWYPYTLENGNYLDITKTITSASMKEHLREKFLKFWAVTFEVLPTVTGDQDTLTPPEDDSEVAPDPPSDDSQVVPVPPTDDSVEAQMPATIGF

T2: Human BSSL (bile salt-stimulated lipase), native (human, UniProt P19835 21-753)
T2 construct: Native full-length protein purified from human milk (Astra Hässle AB); also called hBSSL; non-biotinylated human BSSL
T2 sequence: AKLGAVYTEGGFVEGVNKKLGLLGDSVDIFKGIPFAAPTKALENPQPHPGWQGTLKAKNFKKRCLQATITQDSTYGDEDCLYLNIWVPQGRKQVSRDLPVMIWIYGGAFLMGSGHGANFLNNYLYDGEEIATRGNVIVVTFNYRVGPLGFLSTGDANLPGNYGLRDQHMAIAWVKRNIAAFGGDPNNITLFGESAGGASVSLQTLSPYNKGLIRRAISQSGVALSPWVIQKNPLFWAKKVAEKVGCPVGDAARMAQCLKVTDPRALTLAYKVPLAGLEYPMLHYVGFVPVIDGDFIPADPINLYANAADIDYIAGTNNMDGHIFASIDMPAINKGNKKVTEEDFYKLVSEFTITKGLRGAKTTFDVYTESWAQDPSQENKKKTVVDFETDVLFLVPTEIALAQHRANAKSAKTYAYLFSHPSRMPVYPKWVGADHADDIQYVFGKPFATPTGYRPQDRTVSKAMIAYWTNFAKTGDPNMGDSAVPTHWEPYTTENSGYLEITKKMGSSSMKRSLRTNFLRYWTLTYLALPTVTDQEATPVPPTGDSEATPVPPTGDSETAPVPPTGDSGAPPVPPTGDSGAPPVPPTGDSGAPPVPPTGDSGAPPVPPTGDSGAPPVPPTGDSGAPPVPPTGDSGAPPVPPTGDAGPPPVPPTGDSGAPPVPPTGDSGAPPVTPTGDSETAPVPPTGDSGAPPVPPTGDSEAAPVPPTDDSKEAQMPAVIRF


Tests used:
Mouse BSSL, recombinant = target: T1, Mouse BSSL, recombinant; experiment: SPR steady state, hIgG4 S228P captured by anti-Fab
Procedure: (§1) Kinetic parameters of the hIgG4 S228P clones were determined by SPR using BIACORE® T200 (GE Healthcare). Single cycle kinetics was used to measure the affinity of the purified hIgG4 molecules to human and mouse BSSL. An anti-Fab antibody (GE Healthcare, #28958325) was immobilized on a CM5 S sensor chip by primary amine coupling using NHS-EDC chemistry. hIgG4 was captured by the anti-Fab antibody, and subsequently, five different concentrations of hBSSL (1:5 dilutions starting from 50 nM) or mBSSL (1:5 dilutions starting from 500 nM) were injected over the surface. The sensor chip surface was regenerated with 10 mM glycine-HCl pH 2.1. For binding to human BSSL, single cycle kinetic data was fitted to a 1:1 binding model and kinetic parameters were retrieved using software BlAevaluation. For mouse BSSL, a steady state analysis was performed by plotting the response level at equilibrium against each concentration, and KD values were retrieved by the BlAevalution software.

[1] = target: T2, Human BSSL (bile salt-stimulated …); experiment: SPR single cycle kinetics, hIgG4 S228P captured by anti-Fab
Procedure: as §1

| Binder | Kd (Mouse BSSL, recombinant) | Kd [1] |
| --- | --- | --- |
| S-SL048-13 hIgG4 S228P (antibody, V domains shown, Tested as human IgG4 S228P) VH: QVQLVQSGAEVKKPGASVKVSCKASGYTFTSYNMHWVRQAPGQGLEWIGVINPSDGATSYTQKFQGRVTMTRDTSTSTVYMELSSLRSEDTAVYYCARDYYGSSPLGYWGQGTLVTVSS VL: DIQMTQSPSSLSASVGDRVTITCSASPSISYLNWYQQKPGKAPKLLIYATSSLASGVPSRFSGSGSGTDFTLTISSLQPEDFATYYCQQRSSSPTFGQGTKLEIK | 57 nM | 0.9 nM |
| S-SL048-110 hIgG4 S228P (antibody, V domains shown, Tested as human IgG4 S228P) VH: QVQLVQSGAEVKKPGASVKVSCKASGYTFTSYNMHWVRQAPGQGLEWMGVINPGDGATSYNQKFKGRVTMTRDTSTSTVYMELSSLRSEDTAVYYCARDYYGSSPLGYWGQGTLVTVSS VL: DIQMTQSPSSLSASVGDRVTITCSASQSISYLHWYQQKPGKAPKLLIYAASRLASGVPSRFSGSGSGTDFTLTISSLQPEDFATYYCHQRSSTPTFGQGTKLEIK | 168 nM | 5.9 nM |
| S-SL048-89 hIgG4 S228P (antibody, V domains shown, Tested as human IgG4 S228P) VH: QVQLVQSGAEVKKPGASVKVSCKASGYTFTSYNMHWVRQAPGQGLEWMGVINPSSGSTSYTQKFQGRVTMTRDTSTSTVYMELSSLRSEDTAVYYCARDYYGSSPLGYWGQGTLVTVSS VL: DIQMTQSPSSLSASVGDRVTITCRASPSISYLNWYQQKPGKAPKLLIYATSRLPSGVPSRFSGSGSGTDFTLTISSLQPEDFATYYCQQRSSNPTFGQGTKLEIK |  | 6 nM |
| S-SL048-12 hIgG4 S228P (antibody, V domains shown, Tested as human IgG4 S228P) VH: QVQLVQSGAEVKKPGASVKVSCKASGYTFTSYNMHWVRQAPGQGLEWMGVINPSDGATSYTQKFQGRVTMTRDTSTSTVYMELSSLRSEDTAVYYCARDYYGSSPLGYWGQGTLVTVSS VL: DIQMTQSPSSLSASVGDRVTITCSASSSISYMHWYQQKPGKAPKLLIYAASRLASGVPSRFSGSGSGTDFTLTISSLQPEDFATYYCHQRSSTSTFGQGTKLEIK | 57 nM | 6.4 nM |

Results, then the binder that gave them:

| Kd (Mouse BSSL, recombinant) | Kd [1] | Binder |
| --- | --- | --- |
|  | 1.8 nM | S-SL048-134 hIgG4 S228P (antibody, V domains shown, Tested as human IgG4 S228P) VH: QVQLVQSGAEVKKPGASVKVSCKASGYTFTSYNMHWVRQAPGQGLEWMGVINPSDGATSYAQKFKGRVTMTRDTSTSTVYMELSSLRSEDTAVYYCARDYYGSSPLGYWGQGTLVTVSS VL: DIQMTQSPSSLSASVGDRVTITCRASPSISYLNWYQQKPGKAPKLLIYATSKLPSGVPSRFSGSGSGTDFTLTISSLQPEDFATYYCQQRSSYPTFGQGTKLEIK |
| 164 nM |  | S-SL048-75 hIgG4 S228P (antibody, V domains shown, Tested as human IgG4 S228P) VH: QVQLVQSGAEVKKPGASVKVSCKASGYTFTSYNMHWVRQAPGQGLEWMGVIYPGGGYTSYAQKFKGRVTMTRDTSTSTVYMELSSLRSEDTAVYYCARDYYGSSPLGYWGQGTLVTVSS VL: DIQMTQSPSSLSASVGDRVTITCRASQSISYLNWYQQKPGKAPKLLIYATSNLQSGVPSRFSGSGSGTDFTLTISSLQPEDFATYYCHQRSSSPTFGQGTKLEIK |
